The results in this text go back to patent US20050129676A1 (ADHEREX TECHNOLOGIES, published 2005).

For assay [1], the target named is T1, Fc-E-cadherin chimeric protein.
T1 construct: It was captured on immobilised protein A on a CM5 chip (about 3500 RU)
In words: SPR (BIAcore X), Fc-E-cadherin captured on protein A, peptide as analyte, 3 mM CaCl2, fit to binding isotherm. The procedure: (§1) The binding of representative peptide modulating agents to Fc-E-cadherin chimeric protein in either the presence (3 mM CaCl₂) or absence of calcium was assessed using a BIAcore X™ Biosensor (Pharmacia Ltd., Sweden). Protein A was immobilized on the flow cells of a CM 5 sensor chip using a standard amine coupling method. The surfaces were activated with a 7 min injection of NHS/EDC, followed by a 7 min injection of protein A in 10 mM acetate pH 5.0 at a concentration of 50 ug/mL and blocked with a 7 min injection of 8 M ethanolamine, pH 8.2. […] Next, Fc-E-cadherin was injected over the protein A surface to be captured on the sensor chip.
(§2) To test compound binding to these surfaces, candidate modulating agents were injected in a three-fold dilution series over the Fc-E-cadherin-coated surfaces using six concentrations and each concentration was repeated twice.
For orientation: Surface plasmon resonance follows binding to a sensor surface in real time, without labels.

Assay [2] has the same target. In words: SPR (BIAcore X), Fc-E-cadherin captured on protein A, peptide as analyte, no calcium, fit to binding isotherm. The procedure:
as §1, §2

Assay [3] shares this target. In words: SPR (BIAcore X), Fc-E-cadherin captured on protein A, peptide as analyte, 3 mM CaCl2, fit to binding isotherm; with Ca^++ (3 mM CaCl2). The procedure: as §1, §2

T1 sequence (P12830 155-709, change not shown): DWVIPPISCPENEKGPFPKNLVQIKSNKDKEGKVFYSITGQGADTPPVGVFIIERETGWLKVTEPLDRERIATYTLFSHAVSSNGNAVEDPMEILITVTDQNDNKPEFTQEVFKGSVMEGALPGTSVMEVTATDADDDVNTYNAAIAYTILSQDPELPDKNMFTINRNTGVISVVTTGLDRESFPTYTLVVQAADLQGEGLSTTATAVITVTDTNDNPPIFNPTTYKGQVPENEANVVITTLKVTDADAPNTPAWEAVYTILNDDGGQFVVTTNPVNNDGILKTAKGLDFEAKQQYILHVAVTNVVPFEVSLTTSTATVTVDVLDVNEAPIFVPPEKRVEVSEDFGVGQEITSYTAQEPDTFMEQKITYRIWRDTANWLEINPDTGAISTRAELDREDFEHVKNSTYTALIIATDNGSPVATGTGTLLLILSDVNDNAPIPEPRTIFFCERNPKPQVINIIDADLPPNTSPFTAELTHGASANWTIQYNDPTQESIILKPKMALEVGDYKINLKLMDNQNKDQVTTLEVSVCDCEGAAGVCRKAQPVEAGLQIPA

B1: H-PWVIPP-NH2 (peptide)
peptide: H-PWVIPP-NH2
notes: Linear synthetic peptide; analogue of H-DWVIPP-NH2
Regarding B1, in assay [1], the affinity, expressed as Kd, was 543 µM.

B2: H-DWVIPA-NH2 (peptide)
peptide: H-DWVIPA-NH2
notes: as for B1
B2: the affinity in assay [1], expressed as Kd, was 59 µM.

B3: H-DWVIAP-NH2 (peptide)
peptide: H-DWVIAP-NH2
notes: as for B1
As to B3, the affinity in assay [1], expressed as Kd, was 17 µM.

B4: H-AWVIPP-NH2 (peptide)
peptide: H-AWVIPP-NH2
notes: as for B1
Turning to B4, the Kd (as a rule, the concentration at which binding is half-saturated) in assay [1] is 42 µM.

B5: H-DWVIP-NH2 (peptide)
peptide: H-DWVIP-NH2
notes: Linear synthetic peptide
As to B5, the values for the Kd in assay [1] and in assay [2] were 36.1 µM and 66 µM, respectively.

B6: H-DWVIPP-NH2 (peptide)
peptide: H-DWVIPP-NH2
notes: Linear synthetic peptide; also called ADH254
On to B6, for which the Kd in assay [1] was determined as 34 µM.

B7: H-DWVAPP-NH2 (peptide)
peptide: H-DWVAPP-NH2
notes: as for B1
With B7, the Kd in assay [3] is 21000 µM.
